# Laboratory results taken from patent publication US20250197513A1 (University of Texas, published 2025).
# T1: recombinant OSMR protein (Sino Biologicals, 11226-H08H), extracellular domain of OSMR (UniProt Q99650 28-740)
# T1 construct: extracellular domain; also called OSMR antigen
# T1 sequence (looked up): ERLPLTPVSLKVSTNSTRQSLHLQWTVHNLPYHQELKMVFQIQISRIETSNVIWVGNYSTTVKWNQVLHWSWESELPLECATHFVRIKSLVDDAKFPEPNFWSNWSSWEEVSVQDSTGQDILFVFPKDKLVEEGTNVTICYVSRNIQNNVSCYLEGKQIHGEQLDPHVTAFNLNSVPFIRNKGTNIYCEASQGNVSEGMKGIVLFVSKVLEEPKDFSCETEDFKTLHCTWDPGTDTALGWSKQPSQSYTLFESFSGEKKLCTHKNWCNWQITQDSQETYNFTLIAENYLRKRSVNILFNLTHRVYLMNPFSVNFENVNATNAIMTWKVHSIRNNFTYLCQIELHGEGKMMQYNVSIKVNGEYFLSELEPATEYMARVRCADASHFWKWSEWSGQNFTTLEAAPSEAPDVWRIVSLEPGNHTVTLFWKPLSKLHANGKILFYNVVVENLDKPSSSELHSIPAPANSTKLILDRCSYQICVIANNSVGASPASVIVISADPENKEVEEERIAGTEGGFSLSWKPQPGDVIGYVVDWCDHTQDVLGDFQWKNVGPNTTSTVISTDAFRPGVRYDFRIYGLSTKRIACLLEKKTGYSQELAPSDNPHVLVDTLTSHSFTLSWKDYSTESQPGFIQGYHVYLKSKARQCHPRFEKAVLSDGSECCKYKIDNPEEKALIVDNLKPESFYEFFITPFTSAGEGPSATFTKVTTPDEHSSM
# T2: cell surface human OSMR protein (as used in the ELISA for EC50) (human, UniProt Q99650 28-739, limits assumed)
# T2 sequence (looked up): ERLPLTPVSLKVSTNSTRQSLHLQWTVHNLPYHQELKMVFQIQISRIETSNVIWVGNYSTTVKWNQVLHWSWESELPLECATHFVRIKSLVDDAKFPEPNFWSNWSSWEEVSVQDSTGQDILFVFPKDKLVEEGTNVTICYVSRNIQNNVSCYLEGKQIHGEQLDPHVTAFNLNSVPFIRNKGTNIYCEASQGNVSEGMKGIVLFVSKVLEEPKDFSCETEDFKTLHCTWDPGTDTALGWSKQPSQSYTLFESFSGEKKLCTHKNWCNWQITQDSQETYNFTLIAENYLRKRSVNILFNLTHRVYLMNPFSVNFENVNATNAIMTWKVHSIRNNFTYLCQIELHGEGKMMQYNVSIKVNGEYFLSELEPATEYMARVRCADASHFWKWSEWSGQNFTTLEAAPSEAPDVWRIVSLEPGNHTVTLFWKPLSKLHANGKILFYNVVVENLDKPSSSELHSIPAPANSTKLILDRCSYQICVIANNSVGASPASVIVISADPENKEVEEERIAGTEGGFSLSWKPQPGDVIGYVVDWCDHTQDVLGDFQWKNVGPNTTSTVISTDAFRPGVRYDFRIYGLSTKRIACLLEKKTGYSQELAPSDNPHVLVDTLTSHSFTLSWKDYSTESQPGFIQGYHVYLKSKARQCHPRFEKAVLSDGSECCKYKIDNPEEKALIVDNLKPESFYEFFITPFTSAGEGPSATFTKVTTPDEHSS
# B1: OSMR on human ovarian cancer cells (HEYA8, OVCAR4, A2780) (receptor, UniProt Q99650 28-979, looked up)
# chain: ERLPLTPVSLKVSTNSTRQSLHLQWTVHNLPYHQELKMVFQIQISRIETSNVIWVGNYSTTVKWNQVLHWSWESELPLECATHFVRIKSLVDDAKFPEPNFWSNWSSWEEVSVQDSTGQDILFVFPKDKLVEEGTNVTICYVSRNIQNNVSCYLEGKQIHGEQLDPHVTAFNLNSVPFIRNKGTNIYCEASQGNVSEGMKGIVLFVSKVLEEPKDFSCETEDFKTLHCTWDPGTDTALGWSKQPSQSYTLFESFSGEKKLCTHKNWCNWQITQDSQETYNFTLIAENYLRKRSVNILFNLTHRVYLMNPFSVNFENVNATNAIMTWKVHSIRNNFTYLCQIELHGEGKMMQYNVSIKVNGEYFLSELEPATEYMARVRCADASHFWKWSEWSGQNFTTLEAAPSEAPDVWRIVSLEPGNHTVTLFWKPLSKLHANGKILFYNVVVENLDKPSSSELHSIPAPANSTKLILDRCSYQICVIANNSVGASPASVIVISADPENKEVEEERIAGTEGGFSLSWKPQPGDVIGYVVDWCDHTQDVLGDFQWKNVGPNTTSTVISTDAFRPGVRYDFRIYGLSTKRIACLLEKKTGYSQELAPSDNPHVLVDTLTSHSFTLSWKDYSTESQPGFIQGYHVYLKSKARQCHPRFEKAVLSDGSECCKYKIDNPEEKALIVDNLKPESFYEFFITPFTSAGEGPSATFTKVTTPDEHSSMLIHILLPMVFCVLLIMVMCYLKSQWIKETCYPDIPDPYKSSILSLIKFKENPHLIIMNVSDCIPDAIEVVSKPEGTKIQFLGTRKSLTETELTKPNYLYLLPTEKNHSGPGPCICFENLTYNQAASDSGSCGHVPVSPKAPSMLGLMTSPENVLKALEKNYMNSLGEIPAGETSLNYVSQLASPMFGDKDSLPTNPVEAPHCSEYKMQMAVSLRLALPPPTENSSLSSITLLDPGEHYC
# notes: whole, on cells; also called Oncostatin M receptor; OMSR receptors
# B2: B18 monoclonal antibody (antibody, V domains shown)
# VH: not shown
# VL: DVVMTQSPLSLPVTPGEPASISCRSSQSLLHSNGYNYLDWYMQKPGQSPQVLIYLGSNRASGVPDRFSGSGSGTDFTLKISRVEAEDVGVYYCMQALQTPHTFGQGTTVDIK
# notes: also called B18 mAb; B18 antibody clones
# Key:
# [1] = target: the molecule itself; experiment: dimerization assay (cross-linking, immunoprecipitation) after OSM stimulation
# Description: Dimerization assay: Dimerization assay was performed as mentioned previously (Bublil et al., 2010; Turk and Chapkin, 2015) with some modifications. […] The […] were incubated with non-permeable cross-linking reagent, 3 mM bis (sulphosuccinimidyl) suberate [BS3 (Pierce)], cross-linking reagent on ice for 30 min and subsequently quenched with 250 mM Glycine. The cells were washed with ice cold PBS and cells were lysed using RIPA buffer as mentioned earlier.
# [2] = target: T1, recombinant OSMR protein (Sino …); experiment: screening of full-length IgG1 clones on recombinant OSMR extracellular domain
# [3] = target: T2, cell surface human OSMR protein (as …); experiment: ELISA
Binder,binding result [1],binding result [2],binding result [3]
B1,binds,–,–
B2,–,binds,no binding
